Measured values reported in the supplement of paper PMC12042874.
± gives the uncertainty stated by the source.

test: amyloid nucleation score (Sup35N fusion, yeast selection) (log enrichment); library NNK1; higher = more nucleation; inactive = no reads after selection
Summary of the method: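 The nucleation score is a DiMSum log enrichment of output over input reads, centred on the mode score of non-aggregating sequences. Sequences under 100 input reads were excluded, and reads came from Illumina sequencing of plasmid inserts. Psi-negative yeast expressing Sup35N fused to peptides of 20 random codons were induced with 100 μM copper sulfate for 24 hours and grown 7 days at 30°C on medium lacking adenine and uracil. Random libraries had three technical output replicates.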

| Substance | amyloid nucleation score |
| --- | --- |
| FGSARGHSGY | 1.52 ± 0.18 |
| FGVEYWWSLGCVWGTLLGYN | inactive |
| FGYTVFIDFVSSGMMRFGGQ | 0.784 ± 0.48 |
| FHAWSVFFIVRCLTEVRGYL | -0.081 ± 0.34 |
| FHEDKIS | 1.34 ± 0.36 |
| FHGDLA | -0.57 ± 0.26 |
| FHICGFRYSHLGREPMKFGI | 2.23 ± 0.19 |
| FHQDFDSWF | 0.362 ± 0.51 |
| FHSSGFVVYMLIVRGSPSMR | 0.218 ± 0.27 |
| FHVVSFQGETCDHRIGRIVY | 0.002 ± 0.33 |
| FIAIDLS | 1.31 ± 0.45 |
| FIFCAGCVENNTSSPK | 6.224 ± 0.059 |
| FIFWGDLFWV | -0.992 ± 0.32 |
| FIIDYKTDKRSEFWL | 0.215 ± 0.35 |
| FIITWILTKNMKLGEVYSIS | -0.132 ± 0.72 |
| FINGFGEDLKHIREVEVYLY | 4.07 ± 0.084 |
| FIQCVFHVCLRV | 4.68 ± 0.073 |
| FIRASWCSRIYIKFVN | 0.587 ± 0.43 |
| FIRCVNSV | -0.745 ± 2.4 |
| FIRFTICALTSKVDFI | 0.811 ± 0.74 |
| FIRTRLIIYLSEDGYPVA | 1.31 ± 0.21 |
| FISPFCIVSYIIC | 5.846 ± 0.054 |

| Substance | amyloid nucleation score |
| --- | --- |
| FISPLSISLHQWVLSSKYRE | 7.394 ± 0.044 |
| FIVDLWCMLFNSILAGCVVV | -0.008 ± 0.21 |
| FIVFISFSFWRVTGIR | -0.139 ± 0.59 |
| FIVTYSNTIRYSMPSKLPWQ | 3.26 ± 0.077 |
| FIWSVTYSGP | 1.48 ± 0.72 |
| FKAHRMVLHGYIGSMERG | -0.186 ± 1.1 |
| FKDGLCYCNSGVS | -0.452 ± 0.39 |
| FKEER | 0.133 ± 1.4 |
| FKGRNSFPLLDSWVIHRIGI | 0.422 ± 0.9 |
| FKRRKSFAHCRFAGVVRRWW | -0.581 ± 1.2 |
| FKTTDHFVGVYCLLYAKKQG | -0.235 ± 0.77 |
| FKVNRHLPELHLCKGTEWKL | inactive |
| FLCEAFDQGNLVIIDP | -0.502 ± 0.46 |
| FLDLSGMPGSVWFDIGVSCF | -0.716 ± 1 |
| FLDYKTSSGHRLYLDRAKES | -0.492 ± 0.36 |
| FLEFWPSVTVYSRCFLVFGR | -1.06 ± 1.1 |
| FLFYRCLGVKFFVFFMIVSK | -0.817 ± 2.4 |
| FLGGDTRIDHGTLWWSLIRQ | 0.032 ± 0.35 |
| FLIFIRFNGHCLSIGWFTLH | 0.303 ± 1 |
| FLISWTIVMHVCTMTDACCR | inactive |
| FLNMASIFNFLHTNRF | 0.054 ± 1.2 |
| FLNTNEKIKMQPIFPFFLLL | -0.495 ± 0.65 |

| Substance | amyloid nucleation score |
| --- | --- |
| FLRRIGMGYIRLRVLGSIFL | 0.854 ± 0.49 |
| FLRSIKWVTVVS | 0.51 ± 0.28 |
| FLSVASFTRI | 0.246 ± 0.32 |
| FLSYDMLYVKLT | 2.44 ± 0.16 |
| FLVSCYPWVE | 0.248 ± 0.71 |
| FLWDL | 0.268 ± 0.75 |
| FLWVTWYFSTVFYVNWALE | 0.505 ± 0.89 |
| FLYGYGADPMPMSSVGRGVK | -0.864 ± 0.51 |
| FLYVLDSVSCQ | 0.648 ± 0.69 |
| FMELEELCSCNERGLLWTPA | 1.6 ± 0.27 |
| FMGFISACQRMIIIMYVFRT | -0.126 ± 0.28 |
| FMISRFLAMRILRTAIWRED | 0.447 ± 0.78 |
| FMMCAYSLVPILLP | 0.136 ± 1.1 |
| FMNGLGPAVAYIMGYTYVSM | 6.369 ± 0.063 |
| FNKVYMSSIVASKVVKMRLI | -0.476 ± 0.75 |
| FNVAAVVGWMKRLIDRSRNT | 1.3 ± 0.88 |
| FNVCLSKESVNLGRD | 0.486 ± 0.39 |
| FNYVICYSLCVVFWARRWCN | 1.75 ± 0.14 |
| FPCSRIELVVSVCVAWVNSC | 1.42 ± 0.28 |
| FPDELESWRTSASPRVAPMG | -0.247 ± 1.9 |
| FPDGEYPMTYTLWELKYVFV | -0.487 ± 0.65 |
| FPDYVDTTFRQIWECLWFFP | inactive |

| Substance | amyloid nucleation score |
| --- | --- |
| FPEFIVFRMRIVYIVSFRTW | 1.06 ± 0.47 |
| FPLSTQ | 2.37 ± 0.43 |
| FPRLGCARTFSDHSMLACTI | 0.098 ± 0.59 |
| FQASSLTGPH | -0.574 ± 0.36 |
| FQTFSSICYMISFLIVG | 0.928 ± 0.68 |
| FRFMVLGLVSLGIGV | -0.59 ± 0.62 |
| FRFSHRLFLWPKYFSIFKNS | 0.37 ± 0.35 |
| FRGSLIFSISVIKVISVLSE | 2.11 ± 0.14 |
| FRGSRELNMSSQGVGACLIR | -0.399 ± 0.88 |
| FRGYSGL | 1.46 ± 0.55 |
| FRIYLYLTCGLCSIIHYFVP | 0.818 ± 0.25 |
| FRLRVSGVSCMR | -0.912 ± 2.4 |
| FRLTGTLALKFVVELTVRR | 2.79 ± 0.26 |
| FRLVYNNFAIT | -1.78 ± 2.4 |
| FRNDGYLNSYMSRRVIIPSD | -0.194 ± 0.23 |
| FRNIDTLLTVHCVSACR | -2.4 ± 2.7 |
| FRNSLSYIVLSCLAMFFNDG | 0.967 ± 0.32 |
| FRNTERGEFNVVYGSPGFSR | 0.751 ± 0.51 |
| FRPSRHNAQPMFHSKPSRAF | -0.636 ± 1.1 |
| FRRFIFFVGYGHFIFWASWL | -0.156 ± 0.68 |
